Measurements from the supplement of paper PMC9112550, “Optimization of the antimicrobial peptide Bac7 by deep mutational scanning” (BMC Biology, 2022).

Each sequence was assayed on Escherichia coli TOP10 (assay: shrunken log2 fold change of peptide-encoding DNA abundance (4.5 h post-induction vs induction); higher = less antimicrobial activity (less host growth inhibition)). Conditions: time post-induction: 4.5 h; library: site-saturation at positions 5, 18, 19, 20.
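Further: peptides expressed intracellularly from a pBAD plasmid library in pooled LB shake-flask culture, induced with 0.3% L-arabinose, DNA abundance read by NGS, three biological replicates, DESeq2 with apeglm shrinkage.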

Sequence | shrunken log2 fold change
RRIRLRPPRLPRPRPRPACFPRP | 0.259
RRIRARPPRLPRPRPRPCESPRP | 0.214
RRIRWRPPRLPRPRPRPGLNPRP | 0.0915
RRIRYRPPRLPRPRPRPEADPRP | 0.123
RRIRCRPPRLPRPRPRPCRCPRP | -0.389
RRIRLRPPRLPRPRPRPVWYPRP | -0.277
RRIRDRPPRLPRPRPRPESKPRP | 0.0201
RRIRWRPPRLPRPRPRPLIKPRP | 0.114
RRIRWRPPRLPRPRPRPFRPPRP | -0.165
RRIRRRPPRLPRPRPRPVQCPRP | -0.138
RRIRTRPPRLPRPRPRPIGKPRP | 0.0128
RRIRGRPPRLPRPRPRPWCRPRP | 0.195
RRIRERPPRLPRPRPRPYCYPRP | -0.979
RRIRTRPPRLPRPRPRPGLWPRP | 0.521
RRIRQRPPRLPRPRPRPIVYPRP | -0.311
RRIRFRPPRLPRPRPRPIIYPRP | -0.671
RRIRQRPPRLPRPRPRPKNHPRP | -0.23
RRIRGRPPRLPRPRPRPKGWPRP | 1.46
RRIRIRPPRLPRPRPRPRVRPRP | 0.112
RRIRLRPPRLPRPRPRPISRPRP | 0.0488
RRIRHRPPRLPRPRPRPLWAPRP | 0.222
RRIRYRPPRLPRPRPRPVHIPRP | -0.526

Sequence | shrunken log2 fold change
RRIRLRPPRLPRPRPRPHQYPRP | -0.297
RRIRFRPPRLPRPRPRPDFAPRP | 0.0852
RRIRVRPPRLPRPRPRPEDDPRP | -0.17
RRIRERPPRLPRPRPRPMRTPRP | 0.0487
RRIRWRPPRLPRPRPRPQQTPRP | 0.103
RRIRARPPRLPRPRPRPDSEPRP | 0.481
RRIRVRPPRLPRPRPRPFRQPRP | 0.0805
RRIRMRPPRLPRPRPRPNKSPRP | 0.0117
RRIRPRPPRLPRPRPRPRYHPRP | -0.224
RRIRDRPPRLPRPRPRPIKFPRP | -0.236
RRIRARPPRLPRPRPRPTTQPRP | 0.584
RRIRMRPPRLPRPRPRPHAIPRP | 0.224
RRIRIRPPRLPRPRPRPYAFPRP | -1.1
RRIRMRPPRLPRPRPRPAIYPRP | 0.0389
RRIRVRPPRLPRPRPRPATQPRP | -0.0949
RRIRARPPRLPRPRPRPVDCPRP | 0.26
RRIRLRPPRLPRPRPRPKPIPRP | 0.111
RRIRCRPPRLPRPRPRPSQTPRP | -0.338
RRIRCRPPRLPRPRPRPLFMPRP | -0.368
RRIRNRPPRLPRPRPRPNAHPRP | -0.456
RRIRDRPPRLPRPRPRPCLVPRP | 0.148
RRIRNRPPRLPRPRPRPFKWPRP | -0.224

Sequence | shrunken log2 fold change
RRIRFRPPRLPRPRPRPDVNPRP | 0.00585
RRIRSRPPRLPRPRPRPGSKPRP | -0.0053
RRIRFRPPRLPRPRPRPLHPPRP | -0.0197
RRIRERPPRLPRPRPRPVDKPRP | -0.0448
RRIRKRPPRLPRPRPRPDKDPRP | -0.0555
RRIRIRPPRLPRPRPRPAKRPRP | 0.0281
RRIRIRPPRLPRPRPRPHLCPRP | 0.0475
RRIRCRPPRLPRPRPRPVCEPRP | 0.0301
RRIRNRPPRLPRPRPRPPNFPRP | -0.0236
RRIRVRPPRLPRPRPRPMQAPRP | -0.0023
RRIRVRPPRLPRPRPRPWAIPRP | -0.0122
RRIRSRPPRLPRPRPRPLLAPRP | 0.602
RRIRERPPRLPRPRPRPSRLPRP | 0.0431
RRIRGRPPRLPRPRPRPSDVPRP | 0.0304
RRIRRRPPRLPRPRPRPKQWPRP | 0.294
RRIRERPPRLPRPRPRPLPVPRP | -0.0551
RRIRFRPPRLPRPRPRPLTWPRP | -0.163
RRIRPRPPRLPRPRPRPPGDPRP | 0.567
RRIRVRPPRLPRPRPRPPNSPRP | 0.12
RRIRHRPPRLPRPRPRPALCPRP | 0.174
RRIRCRPPRLPRPRPRPFECPRP | -0.365
RRIRWRPPRLPRPRPRPMSGPRP | 0.118

Sequence | shrunken log2 fold change
RRIRTRPPRLPRPRPRPYEPPRP | -0.18
RRIRARPPRLPRPRPRPIWIPRP | 0.123
RRIRQRPPRLPRPRPRPRCWPRP | 0.257
RRIRYRPPRLPRPRPRPDSEPRP | -0.0121
RRIRHRPPRLPRPRPRPHYMPRP | -0.854
RRIRSRPPRLPRPRPRPNSIPRP | -0.861
RRIRHRPPRLPRPRPRPQDLPRP | -0.0414
RRIRQRPPRLPRPRPRPAHNPRP | -0.0225
RRIRRRPPRLPRPRPRPSYGPRP | -0.83
RRIRIRPPRLPRPRPRPWWCPRP | -0.196
RRIRARPPRLPRPRPRPCNSPRP | -0.0983
RRIRWRPPRLPRPRPRPCRDPRP | -0.0737
RRIRSRPPRLPRPRPRPRHAPRP | 0.39
RRIRGRPPRLPRPRPRPCIVPRP | 0.201
RRIRPRPPRLPRPRPRPVQVPRP | -0.119
RRIRSRPPRLPRPRPRPGCNPRP | 0.0419
RRIRSRPPRLPRPRPRPNNHPRP | -0.276
RRIRSRPPRLPRPRPRPAYYPRP | -0.495
RRIRNRPPRLPRPRPRPHRQPRP | -0.0962
RRIRHRPPRLPRPRPRPFYNPRP | -0.632
RRIRRRPPRLPRPRPRPNSHPRP | -0.11
RRIRCRPPRLPRPRPRPCPSPRP | -0.0705

Sequence | shrunken log2 fold change
RRIRERPPRLPRPRPRPCNHPRP | -0.567
RRIRRRPPRLPRPRPRPNDNPRP | -0.301
RRIRDRPPRLPRPRPRPQVNPRP | -0.182
RRIRRRPPRLPRPRPRPHGCPRP | 0.000335
RRIRARPPRLPRPRPRPHHNPRP | -0.483
RRIRVRPPRLPRPRPRPVTTPRP | 0.126
RRIRWRPPRLPRPRPRPSVPPRP | 0.045
RRIRQRPPRLPRPRPRPFTDPRP | 0.0299
RRIRPRPPRLPRPRPRPDIHPRP | -0.458
RRIRERPPRLPRPRPRPGYGPRP | -0.165
RRIRIRPPRLPRPRPRPHCFPRP | -0.824
RRIRRRPPRLPRPRPRPWIIPRP | -0.021
RRIRERPPRLPRPRPRPGPHPRP | 0.00422
RRIRGRPPRLPRPRPRPQPDPRP | 0.821
RRIRWRPPRLPRPRPRPKHIPRP | -0.41
RRIRGRPPRLPRPRPRPLIWPRP | 0.602
RRIRQRPPRLPRPRPRPHPVPRP | 0.0674
RRIRTRPPRLPRPRPRPKFQPRP | 0.114
RRIRPRPPRLPRPRPRPCYEPRP | -0.195
RRIRFRPPRLPRPRPRPIFIPRP | -0.777
RRIRVRPPRLPRPRPRPVANPRP | -0.0212
